Assay results: article PMC12289034, “A highly potent human antibody neutralizing all serotypes of BK polyomavirus” (PLOS Pathogens, 2025)

What was measured:
[1] = molecular target: BKPyV VP1 serotype Ib1 pentamer (aa 31-300) (BK polyomavirus) (UniProt P03088); experiment: crystal structure; VP1 Ib1 pentamer mixed with 319C07 Fab 1:1.7, complex isolated by SEC; hanging drop, 20 °C, 21% PEG1500, 0.1 M MIB pH 4.75; 1.96 Å
[2] = molecular target: T1, BKPyV VP1 serotype IVc2 pentamer (aa 31-300) (BK polyomavirus serotype IVc2, isolate …, UniProt B6VQF5, strain); experiment: cell-based or functional assay
[3] = molecular target: T2, BKPyV VP1 serotype II pentamer (aa 31-300) (BK polyomavirus serotype II, isolate …, UniProt A1IHZ0, strain); experiment: cell-based or functional assay
BKPyV VP1 serotype III [4] = molecular target: T3, BKPyV VP1 serotype III (BK polyomavirus, serotype III (isolate …, UniProt P14996, strain)); experiment: cell-based or functional assay
[5] = molecular target: T1, BKPyV VP1 serotype IVc2 pentamer (aa …); experiment: ELISA; VP1 coated on the plate (1 µg/ml, 4 °C over weekend), blocked with 5% skim milk; antibody dilutions in PBS with 0.5% skim milk 1 h; HRP goat anti-human IgG; apparent EC50, three-parameter fit; conditions: both partners purified
[6] = molecular target: T2, BKPyV VP1 serotype II pentamer (aa …); experiment: as above; conditions: both partners purified
BKPyV VP1 serotype III [7] = molecular target: T3, BKPyV VP1 serotype III; experiment: as above; conditions: both partners purified

“BKPyV VP1 serotype Ib1 pentamer (aa 31-300) (from UniProt P03088 31-300) (domain or fragment)” was tested, and the stoichiometry N [1] was 5.

B1: mAb 319C07 (antibody, V domains shown)
VH: QVQLQQWGAGLLKPSETLSLTCAVYRGSFSAYYWTWFRQPPGKGLEWIGEINHRGYTNYNPSLRGRVSISVDTSKKQFSLKLRSVNAADTAVYYCATLRSTSGWHDYFDYWGQGTLVTVSS
VL: EIVLTQSPGTLSLSPGERATLSCRASQSVSSSYLAWYQQTPGQAPRLLIYGASSRATGIPDRFSGSGSGTDFTLTISRLEPEDFVVYFCLQYGSSPLTFGPGTKVDIK
notes: heavy chain variable region of 319C07; human IgG1 heavy chain constant region (soluble IgG1 expression vector); kappa light chain of 319C07; also called antibody 319C07; AntiBKV; source: HEK293F, transient transfection, purified from supernatant (Protein G)
B1 was tested, and the “IC50 of neutralisation of BKPyV serotype IV pseudovirus (luciferase in HEK293TT cells, 72 h)” value [2] was 0.88 pM, the “IC50 of neutralisation of BKPyV serotype II pseudovirus (luciferase in HEK293TT cells, 72 h)” value [3] was 0.35 pM and the “IC50 of neutralisation of BKPyV serotype III pseudovirus (luciferase in HEK293TT cells, 72 h)” value (BKPyV VP1 serotype III [4]) was 29.5 pM. It also gave an EC50 [5] of 0.06 nM, an EC50 [6] of 0.06 nM and an EC50 (BKPyV VP1 serotype III [7]) of 0.06 nM.
